Assay results: US20210269525A1 (BIOCYTOGEN PHARMACEUTICALS BEIJING, published 2021)
Residue numbers refer to the chain shown, from its start. Names and notes keep the numbering of the source. Like-named read-outs stand apart in the source and are kept apart here. One block for each binder: values may come before it.

Legend:
[1] = target: T1, human CD3e (T-cell surface glycoprotein CD3 epsilon chain) (human, UniProt P07766 23-207); experiment: cell-based or functional assay
[2] = target: T2, Cynomolgus CD3 epsilon Protein, His Tag (Acrobiosystems, Cat #CDE-05226) (cynomolgus (Macaca fascicularis), UniProt Q95LI5 22-117); experiment: SPR (Biacore), cynomolgus CD3e His tag
T2 construct: also called monkey CD3e; not shown: His tag
T2 sequence: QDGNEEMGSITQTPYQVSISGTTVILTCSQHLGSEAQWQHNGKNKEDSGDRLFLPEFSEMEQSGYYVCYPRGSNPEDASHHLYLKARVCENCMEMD
Method: The binding affinity of the anti-hCD3e antibodies with monkey CD3e (Cynomolgus CD3 epsilon Protein (SEQ ID NO: 39 AA Gln 22-Asp 117), His Tag, Acrobiosystems, Cat #CDE-05226) were also measured using surface plasmon resonance (SPR) using Biacore (Biacore, INC, Piscataway N.J.) by the methods as described in the examples.

[3] = target: T3, Histidine-tagged human CD3e protein (human, UniProt P07766 23-126); experiment: SPR (Biacore), human CD3e; same numbers as Table 7
T3 construct: also called hCD3e-His; not shown: His tag

[4] = target: T3, Histidine-tagged human CD3e protein; experiment: SPR, Biacore T200, antibody on Protein A chip, hCD3e-His injected
Method: (§1) The binding affinity of the anti-hCD3e antibodies were measured using surface plasmon resonance (SPR) using Biacore (Biacore, INC, Piscataway N.J.) T200 biosensor equipped with pre-immobilized Protein A sensor chips (Protein A (Lot:10260138)-5).
Anti-hCD3e antibodies were collected from CHO-S cells. The antibodies (1:20) were injected into Biacore T200 biosensor at 10 μL/min for 35 seconds to achieve to a desired protein density. Histidine-tagged human CD3e proteins (hCD3e-His) with different concentrations (100 nM 0.390625 nM) were then injected to the system at 30 μL/min for 150 seconds. Dissociation was monitored for 600 seconds. The chip was regenerated after the last injection of each titration with Glycine (pH 2.0, 30 μL/min for 5 seconds).

[5] = target: T4, Histidine-tagged rCD3e protein (rhesus macaque, Macaca mulatta) (rhesus macaque (Macaca mulatta), UniProt Q95LI5 22-117 (cynomolgus entry), limits assumed); experiment: SPR, Biacore T200, antibody on Protein A chip, rCD3e-His injected
T4 construct: also called rCD3e-His; rmCD3e; not shown: His tag
T4 chain: T2 sequence with Q16H, A36V
Method: as §1
Experiments were also performed to test the binding affinities with rCD3e (rhesus macaque, or Macaca mulatta). Anti-hCD3e antibodies (1:20) were injected into Biacore T200 biosensor at 10 μL/min for 30 seconds to achieve to a desired protein density. Histidine-tagged rCD3e proteins (rCD3e-His) with different concentrations (100 nM 0.390625 nM) were then injected to the system at 30 μL/min for 150 seconds. Dissociation was monitored for 450 seconds. The chip was regenerated after the last injection of each titration with Glycine (pH 2.0, 30 μL/min for 12 seconds).

[6] = target: T1, human CD3e (T-cell surface glycoprotein …); experiment: cell-based or functional assay; remark: listed apart in the source
[7] = target: T1, human CD3e (T-cell surface glycoprotein …); experiment: cell-based or functional assay; remark: listed apart in the source
[8] = target: T3, Histidine-tagged human CD3e protein; experiment: SPR (Biacore), human CD3e; same numbers as Table 7; remark: listed apart in the source
[9] = target: T3, Histidine-tagged human CD3e protein; experiment: SPR (Biacore), human CD3e
[10] = target: T1, human CD3e (T-cell surface glycoprotein …); experiment: flow cytometry, human PBMC, antibody 1 µg/mL, anti-human IgG Fc-Alexa Fluor647 (1:500), anti-hTcRβ-PerCP (1:30)
Method: (§2) PBMC cells were collected from a human subject. After being thawed, the cells were cultured for 3-4 hours. The medium was then discarded, and the cells were resuspended in phosphate-buffered saline (PBS). The cell concentration was then adjusted to 2×10⁶/25 μl PBS.
(§3) A 96-well plate was prepared. 25 ul of cell suspension was added to each well. […] The cells and the antibodies were incubated. After centrifuge, the residues were discarded. The samples were washed again. 25 ul of PBS was then added to each well to resuspend cells.
(§4) Anti-human IgG Fc-Alexa Fluror647 (1:500) and anit-hTcRβ PerCP (1:30) were then added to each well. The cells and the antibodies were incubated and then the cells were washed again by PBS. 300 ul of PBS was then added to each well to resuspend the cells. FACS was performed.

[11] = target: T1, human CD3e (T-cell surface glycoprotein …); experiment: flow cytometry, human PBMC, antibody 10 µg/mL, anti-human IgG Fc-Alexa Fluor647 (1:500), anti-hTcRβ-PerCP (1:30)
Method: as §2
A 96-well plate was prepared. 25 ul of cell suspension was added to each well. Anti-hCD3e antibodies with different combinations of humanized 1B1 heavy chain variants and humanized 1B1 light chain variants were diluted to 20 ug/ml (2×) in PBS, and were added to the 96-well plate. The cells and the antibodies were incubated. After centrifuge, the residues were discarded. The samples were washed again. 25 ul of PBS was then added to each well to resuspend cells.
as §4

[12] = target: T1, human CD3e (T-cell surface glycoprotein …); experiment: flow cytometry, human PBMC, antibody 0.1 µg/mL, anti-human IgG Fc-Alexa Fluor647 (1:500), anti-hTcRβ-PerCP (1:30)
Method: as §2, §3, §4

[13] = target: T5, monkey CD3e (Macaca fascicularis) on PBMC (Macaca fascicularis, UniProt Q95LI5 22-198); experiment: flow cytometry, Macaca fascicularis PBMC, antibody concentration not given, anti-human IgG Fc-Alexa Fluor647 (1:500), anti-hTcRβ-PerCP (1:30)
T5 construct: Target on PBMC from Macaca fascicularis; also called mfCD3e; monkey PBMC
T5 sequence (Q95LI5 22-198 limits assumed): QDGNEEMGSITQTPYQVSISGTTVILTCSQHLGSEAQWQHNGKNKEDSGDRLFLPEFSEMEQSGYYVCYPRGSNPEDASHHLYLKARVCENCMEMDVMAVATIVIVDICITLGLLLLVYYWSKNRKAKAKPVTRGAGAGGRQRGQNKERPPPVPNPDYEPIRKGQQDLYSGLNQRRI
In short: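 Cynomolgus PBMC incubated with anti-hCD3 antibodies 15 min at 4° C, washed in PBS. Bound antibody detected with anti-human IgG Fc-Alexa Fluor647 (1:500) plus anti-hTcRβ-PerCP (1:30), 15 min at 4° C, then washed and analysed by flow cytometry.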

- Kd [2]: 9.05 nM
- koff [2]: 0.000453 s⁻¹
- kon [2]: 50000 M⁻¹ s⁻¹
- Kd [3]: 5.37 nM
- koff [3]: 0.000384 s⁻¹
- kon [3]: 71500 M⁻¹ s⁻¹
- Kd [4]: 5.37 nM
- koff [4]: 0.000384 s⁻¹
- kon [4]: 71500 M⁻¹ s⁻¹
- Kd [5]: 2.05 nM
- koff [5]: 0.000251 s⁻¹
- kon [5]: 123000 M⁻¹ s⁻¹
B2: C3E-25-10A4-mHvKv-IgG1-LALA (antibody, V domains shown)
VH: QVQLQQSGPELVKPGASVRISCKASGYTFTSYYIHWVKQRPGQGLEFIGWIYPGNVNAKYNEKFKGKATLTTDKSSTTAYMQLSSLTSEDSAVYFCAIKGGNYDWGQGTLVTVSA
VL: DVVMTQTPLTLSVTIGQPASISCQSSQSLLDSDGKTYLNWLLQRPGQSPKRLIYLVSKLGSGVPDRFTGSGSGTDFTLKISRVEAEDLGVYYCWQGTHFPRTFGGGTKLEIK
notes: Chimeric

- EC50, luciferase of Jurkat-Luc-NFAT cells; purified antibody [6]: 0.149 µg/mL
- EC50, luciferase of Jurkat-Luc-NFAT cells; purified antibody [7]: 0.449 µg/mL
B3: Teplizumab (antibody, V domains shown)
VH: QVQLVQSGGGVVQPGRSLRLSCKASGYTFTRYTMHWVRQAPGKGLEWIGYINPSRGYTNYNQKVKDRFTISRDNSKNTAFLQMDSLRPEDTGVYFCARYYDDHYCLDYWGQGTPVTVSS
VL: DIQMTQSPSSLSASVGDRVTITCSASSSVSYMNWYQQTPGKAPKRWIYDTSKLASGVPSRFSGSGSGTDYTFTISSLQPEDIATYYCQQWSSNPFTFGQGTKLQITR

- Kd [2]: 4.54 nM
- koff [2]: 0.00049 s⁻¹
- kon [2]: 108000 M⁻¹ s⁻¹
- Kd [8]: 0.988 nM
- koff [8]: 0.000509 s⁻¹
- kon [8]: 516000 M⁻¹ s⁻¹
- Kd [4]: 0.988 nM
- koff [4]: 0.000509 s⁻¹
- kon [4]: 516000 M⁻¹ s⁻¹
- Kd [5]: 0.752 nM
- koff [5]: 0.00039 s⁻¹
- kon [5]: 518000 M⁻¹ s⁻¹
B5: C3E-30-1B1-mHvKv-IgG1-LALA (antibody, V domains shown)
VH: QVQLQQPGSELVRPGASVKLSCKASGYTFTSYWMHWVKQRHGQGLEWIGNIYPDSGTTNYGEKFKTKGTLTVDTSSSTAYMHLSSLTSEDSAVYYCTRDTSGQYYFDYWGQGTTLTVSS
VL: DIVMSQSPSSLAVSAGEKVTMSCKSSQSLLNSRTRKNYLAWYQHKPGQSPKLLIYWASTRESGVPDRFTGSGSGTDFTLTISSVQAEDLAVYYCVQSFSLRAFGGGTKLEIK
notes: Chimeric

- EC50, luciferase of Jurkat-Luc-NFAT cells; antibody from supernatant [7]: > 16.7 µg/mL
- Kd [9]: 1.01 nM
- koff [9]: 0.000651 s⁻¹
- kon [9]: 644000 M⁻¹ s⁻¹
- Kd [2]: 5.39 nM
- koff [2]: 0.000591 s⁻¹
- kon [2]: 110000 M⁻¹ s⁻¹
- upper left quadrant, percent of cells AF647+ / hTcRβ-PerCP- [10]: 10.4%
- upper right quadrant, percent of cells AF647+ / hTcRβ-PerCP+ [10]: 60.6%
- upper left quadrant, percent of cells AF647+ / hTcRβ-PerCP- [11]: 10.9%
- upper right quadrant, percent of cells AF647+ / hTcRβ-PerCP+ [11]: 61.2%
- upper left quadrant, percent of cells AF647+ / hTcRβ-PerCP- [12]: 10.8%
- upper right quadrant, percent of cells AF647+ / hTcRβ-PerCP+ [12]: 59.1%
- upper left quadrant, percent of cells AF647+ / hTcRβ-PerCP- [13]: 88.3%
- upper right quadrant, percent of cells AF647+ / hTcRβ-PerCP+ [13]: 8.61%
B7: 1B1-H2K3-IgG1-LALA (antibody, V domains shown)
VH: QVQLVQSGAEVKKPGASVKLSCKASGYTFTSYWMHWVRQAPGQGLEWIGNIYPDSGTTNYGEKFKTRVTLTVDTSTSTAYMELSSLRSEDTAVYYCTRDTSGQYYFDYWGQGTLVTVSS
VL: B5 VL with S5T, S9D, K18R, S22N, T69S, L89V
notes: Humanized; human IgG1 with LALA mutations; also called H2K3 (humanized 1B1)

Continued, binder first:

B1: 25-10A4 (antibody, V domains shown)
VH: B2 VH
VL: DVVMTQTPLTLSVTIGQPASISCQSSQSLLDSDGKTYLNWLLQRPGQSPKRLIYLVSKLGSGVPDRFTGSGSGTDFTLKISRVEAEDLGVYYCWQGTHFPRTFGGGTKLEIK
- EC50, luciferase of Jurkat-Luc-NFAT cells with CHO-FcγRIIB cells [1]: 0.421 µg/mL

B4: 30-1B1 (antibody, V domains shown)
VH: B5 VH
VL: B5 VL
- EC50, luciferase of Jurkat-Luc-NFAT cells with CHO-FcγRIIB cells [1]: 2.98 µg/mL

B6: 1B1-H1K2-IgG1-LALA (antibody, V domains shown)
VH: B7 VH with L20V
VL: B5 VL with S5T, S9D, K18R, S22N, T69S, V84L, L89V, L109V
notes: Humanized; human IgG1 with LALA mutations; also called H1K2 (humanized 1B1)
- EC50, luciferase of Jurkat-Luc-NFAT cells; antibody from supernatant [7]: > 3.08 µg/mL
- Kd [9]: 1.2 nM
- koff [9]: 0.000669 s⁻¹
- kon [9]: 558000 M⁻¹ s⁻¹
- Kd [2]: 7.59 nM
- koff [2]: 0.00072 s⁻¹
- kon [2]: 94900 M⁻¹ s⁻¹
- upper left quadrant, percent of cells AF647+ / hTcRβ-PerCP- [10]: 9.83%
- upper right quadrant, percent of cells AF647+ / hTcRβ-PerCP+ [10]: 62.4%
- upper left quadrant, percent of cells AF647+ / hTcRβ-PerCP- [11]: 9.94%
- upper right quadrant, percent of cells AF647+ / hTcRβ-PerCP+ [11]: 63.5%
- upper left quadrant, percent of cells AF647+ / hTcRβ-PerCP- [12]: 11.6%
- upper right quadrant, percent of cells AF647+ / hTcRβ-PerCP+ [12]: 58.1%
- upper left quadrant, percent of cells AF647+ / hTcRβ-PerCP- [13]: 80.5%
- upper right quadrant, percent of cells AF647+ / hTcRβ-PerCP+ [13]: 14.9%
